Patent US20020025569A1 (GPC BIOTECH, published 2002)

T1: GST-fusion protein containing amino acids 696-902 of human cdc4
T1 sequence: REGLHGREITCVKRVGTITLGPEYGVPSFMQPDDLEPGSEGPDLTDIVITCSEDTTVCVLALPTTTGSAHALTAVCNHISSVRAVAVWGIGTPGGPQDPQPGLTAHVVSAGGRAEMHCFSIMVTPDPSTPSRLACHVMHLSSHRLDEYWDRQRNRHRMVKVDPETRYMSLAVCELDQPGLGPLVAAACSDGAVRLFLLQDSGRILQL

B1: mouse cdc4 (clone from a mouse cDNA-VP16 fusion library; 486 base pair fragment) (other, not shown: large carriers)
chain: TFTHEAPNQRRRLILCSAATDGSLAFWDLTTAMDKGSTTLELPAHPGLPYQMGTPSMTVQAHSCGVNSLHTLPTPEGHHLVASGSEDGSLHVFTLAVKMPEPEEADGEAELVPQLCVLEEYSVPCAHAAHVTGVKILSPKLMVSASIDQRLTFWRLGQGEPP
notes: VP16 is placed first from knowledge of such libraries; also called mu-cdc4; mcdc4

Experiments:
[1] = system: T1, GST-fusion protein containing amino acids 696-902 of human cdc4
[2] = target: T2, human p19 skp1, expressed as a LexA fusion protein from vector pBTM116 (human, UniProt P63208 1-163, limits assumed); test: yeast two-hybrid (LexA-skp1 bait, mouse cDNA-VP16 library)
T2 construct: Bait of the yeast two-hybrid screen in S. cerevisiae L40; also called human skp1
T2 sequence (P63208 whole entry, the tested form may be a part): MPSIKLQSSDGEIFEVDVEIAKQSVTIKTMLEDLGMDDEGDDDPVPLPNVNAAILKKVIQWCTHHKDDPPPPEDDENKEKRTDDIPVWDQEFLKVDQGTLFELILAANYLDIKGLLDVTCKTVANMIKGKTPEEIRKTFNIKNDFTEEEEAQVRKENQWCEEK
Procedure: A full length cDNA encoding a mouse homolog of yeast cdc4 protein was cloned through its ability to specifically interact with human p19 skp1 in a yeast two hybrid system. Briefly, human skp1 was cloned into the vector pBTM116 for expression as a LexA fusion protein. This construct was transformed into S. Cerevisiae strain L40 (MATa his3 200 trp1-900 leu2-3,112 ade LYS2::lexAop)₄-HIS3 URA3::(lexAop)₈-lacZ GAL4). Skp1 interacting clones were selected in the presence of 1 mM 3-aminotriazole after transformation of a mouse cDNA-VP16 fusion library. Specificity of the interacting clones was assessed with the D. Melanogaster daughterless gene.

Molecule | in vitro ubiquitination reaction (E1, E2, biotinylated ubiquitin; streptavidin-HRP after non-reducing SDS-PAGE) [1] | binding result [2]
UBC2 | though to a lesser extent, UBC2 | –
UBC4 | cdc4 polypeptide was found to be ubiquitinated by UBC4 | –
B1 | – | binds
